Measurements as given in PMC10891134, “Bacteria employ lysine acetylation of transcriptional regulators to adapt gene expression to cellular metabolism” (Nature Communications, 2024).

What was measured:
[1] = target: RutR AcK11 K11AcK (Escherichia coli K12?) (UniProt P0ACU2); assay: ITC; details: ITC: 100 mM potassium phosphate pH 6.4, 150 mM NaCl, 5 mM MgCl2, 2 mM b-ME, 20 or 25 C; SPR: 100 mM potassium phosphate pH 6.4, 300 mM NaCl, 0.05% Tween20 …
[2] = target: RutR AcK150 K150AcK (Escherichia coli K12?) (UniProt P0ACU2); assay: ITC; details: ITC: 100 mM potassium phosphate pH 6.4, 150 mM NaCl, 5 mM MgCl2, 2 mM b-ME, 20 or 25 C; SPR: 100 mM potassium phosphate pH 6.4, 300 mM NaCl, 0.05% Tween20 …
[3] = target: RutR AcK21 K21AcK (Escherichia coli K12?) (UniProt P0ACU2); assay: ITC; details: ITC: 100 mM potassium phosphate pH 6.4, 150 mM NaCl, 5 mM MgCl2, 2 mM b-ME, 20 or 25 C; SPR: 100 mM potassium phosphate pH 6.4, 300 mM NaCl, 0.05% Tween20 …
[4] = target: RutR AcK7 K7AcK (Escherichia coli K12?) (UniProt P0ACU2); assay: ITC; details: ITC: 100 mM potassium phosphate pH 6.4, 150 mM NaCl, 5 mM MgCl2, 2 mM b-ME, 20 or 25 C; SPR: 100 mM potassium phosphate pH 6.4, 300 mM NaCl, 0.05% Tween20 …
[5] = target: RutR AcK7/11 K7AcK;K11AcK (Escherichia coli K12?) (UniProt P0ACU2); assay: ITC; details: ITC: 100 mM potassium phosphate pH 6.4, 150 mM NaCl, 5 mM MgCl2, 2 mM b-ME, 20 or 25 C; SPR: 100 mM potassium phosphate pH 6.4, 300 mM NaCl, 0.05% Tween20 …
[6] = target: RutR AcK95 K95AcK (Escherichia coli K12?) (UniProt P0ACU2); assay: ITC; details: ITC: 100 mM potassium phosphate pH 6.4, 150 mM NaCl, 5 mM MgCl2, 2 mM b-ME, 20 or 25 C; SPR: 100 mM potassium phosphate pH 6.4, 300 mM NaCl, 0.05% Tween20 …
[7] = target: RutR AcK7/11 K7AcK;K11AcK (Escherichia coli K12?) (UniProt P0ACU2); assay: SPR; details: ITC: 100 mM potassium phosphate pH 6.4, 150 mM NaCl, 5 mM MgCl2, 2 mM b-ME, 20 or 25 C; SPR: 100 mM potassium phosphate pH 6.4, 300 mM NaCl, 0.05% Tween20 …
[8] = target: the molecule itself; assay: SEC; analytical size-exclusion chromatography of the purified RutR proteins; elution as dimer; column and buffer not given

Molecule: GTTTTATGTGCAACTGTTTTGACCGTTTAGTCCACTTTTTACCAGATATTTTAG (double strand) [boxrutA]
- Kd [1]: 95 nM
- Kd [2]: 72 nM
- Kd [3]: 58 nM
- Kd [4]: 94 nM
- Kd [5]: 251 nM
- Kd [6]: 32 nM

Molecule: GTTTTAATGTAAATTTTGACCATTTGGTCCACTTTTTTCTGCTCGT (double strand) [biotin-boxcarA]
- binding signal (fold reduced affinity vs WT) [7]: 8

B1: non-acetylated RutR (pyrimidine utilization repressor) wild type (natural protein, E. coli, UniProt P0ACU2 1-212, looked up)
chain: MTQGAVKTTGKRSRAVSAKKKAILSAALDTFSQFGFHGTRLEQIAELAGVSKTNLLYYFPSKEALYIAVLRQILDIWLAPLKAFREDFAPLAAIKEYIRLKLEVSRDYPQASRLFCMEMLAGAPLLMDELTGDLKALIDEKSALIAGWVKSGKLAPIDPQHLIFMIWASTQHYADFAPQVEAVTGATLRDEVFFNQTVENVQRIIIEGIRPR
notes: RutR, TetR-family transcriptional regulator of Escherichia coli; called full-length RutR WT; Expressed from a modified pRSFDuet-1 that carries a G to P mutation after the start Met of the tag region; No tag cleavage is described; also called RutR WT; source: E. coli BL21 (DE3), purified (Ni-NTA, SEC)
- stoichiometry N [8]: 2

B2: RutR AcK21 (site-specifically K21-acetylated RutR) (natural protein, E. coli)
chain: MTQGAVKTTGKRSRAVSAKKKAILSAALDTFSQFGFHGTRLEQIAELAGVSKTNLLYYFPSKEALYIAVLRQILDIWLAPLKAFREDFAPLAAIKEYIRLKLEVSRDYPQASRLFCMEMLAGAPLLMDELTGDLKALIDEKSALIAGWVKSGKLAPIDPQHLIFMIWASTQHYADFAPQVEAVTGATLRDEVFFNQTVENVQRIIIEGIRPR
modifications: acetyl-lysine at 21
notes: RutR of Escherichia coli; rutR gene as in m1 with an amber stop codon at K21 for acetyl-L-lysine; Same rutR construct as m1 apart from the amber codon; constructs are in Supplementary Data 4; source: E. coli BL21 (DE3), genetic code expansion (acetyl-L-lysine at an amber codon), purified
- stoichiometry N [8]: 2

B3: RutR AcK52 (site-specifically K52-acetylated RutR) (natural protein, E. coli)
chain: MTQGAVKTTGKRSRAVSAKKKAILSAALDTFSQFGFHGTRLEQIAELAGVSKTNLLYYFPSKEALYIAVLRQILDIWLAPLKAFREDFAPLAAIKEYIRLKLEVSRDYPQASRLFCMEMLAGAPLLMDELTGDLKALIDEKSALIAGWVKSGKLAPIDPQHLIFMIWASTQHYADFAPQVEAVTGATLRDEVFFNQTVENVQRIIIEGIRPR
modifications: acetyl-lysine at 52
notes: RutR of Escherichia coli; rutR gene as in m1 with an amber stop codon at K52 for acetyl-L-lysine; no electron density for the N-terminal 12 (chain A) or 11 (chain B) residues in the structure; Same rutR construct as m1 apart from the amber codon; constructs are in Supplementary Data 4; also called RutR AcK52•uracil; source: E. coli BL21 (DE3), genetic code expansion (acetyl-L-lysine at an amber …)
- stoichiometry N [8]: 2

B4: RutR AcK62 (site-specifically K62-acetylated RutR) (natural protein, E. coli)
chain: MTQGAVKTTGKRSRAVSAKKKAILSAALDTFSQFGFHGTRLEQIAELAGVSKTNLLYYFPSKEALYIAVLRQILDIWLAPLKAFREDFAPLAAIKEYIRLKLEVSRDYPQASRLFCMEMLAGAPLLMDELTGDLKALIDEKSALIAGWVKSGKLAPIDPQHLIFMIWASTQHYADFAPQVEAVTGATLRDEVFFNQTVENVQRIIIEGIRPR
modifications: acetyl-lysine at 62
notes: RutR of Escherichia coli; rutR gene as in m1 with an amber stop codon at K62 for acetyl-L-lysine; Same rutR construct as m1 apart from the amber codon; constructs are in Supplementary Data 4; source: E. coli BL21 (DE3), genetic code expansion (acetyl-L-lysine at an amber codon), purified
- stoichiometry N [8]: 2

B5: RutR AcK95 (site-specifically K95-acetylated RutR) (natural protein, E. coli)
chain: MTQGAVKTTGKRSRAVSAKKKAILSAALDTFSQFGFHGTRLEQIAELAGVSKTNLLYYFPSKEALYIAVLRQILDIWLAPLKAFREDFAPLAAIKEYIRLKLEVSRDYPQASRLFCMEMLAGAPLLMDELTGDLKALIDEKSALIAGWVKSGKLAPIDPQHLIFMIWASTQHYADFAPQVEAVTGATLRDEVFFNQTVENVQRIIIEGIRPR
modifications: acetyl-lysine at 95
notes: RutR of Escherichia coli; rutR gene as in m1 with an amber stop codon at K95 for acetyl-L-lysine; Same rutR construct as m1 apart from the amber codon; constructs are in Supplementary Data 4; source: E. coli BL21 (DE3), genetic code expansion (acetyl-L-lysine at an amber codon), purified
- stoichiometry N [8]: 2

B6: RutR AcK150 (site-specifically K150-acetylated RutR) (natural protein, E. coli)
chain: MTQGAVKTTGKRSRAVSAKKKAILSAALDTFSQFGFHGTRLEQIAELAGVSKTNLLYYFPSKEALYIAVLRQILDIWLAPLKAFREDFAPLAAIKEYIRLKLEVSRDYPQASRLFCMEMLAGAPLLMDELTGDLKALIDEKSALIAGWVKSGKLAPIDPQHLIFMIWASTQHYADFAPQVEAVTGATLRDEVFFNQTVENVQRIIIEGIRPR
modifications: acetyl-lysine at 150
notes: RutR of Escherichia coli; rutR gene as in m1 with an amber stop codon at K150 for acetyl-L-lysine; Same rutR construct as m1 apart from the amber codon; constructs are in Supplementary Data 4; source: E. coli BL21 (DE3), genetic code expansion (acetyl-L-lysine at an amber codon), purified
- stoichiometry N [8]: 2

B7: RutR AcK7 (site-specifically K7-acetylated RutR) (natural protein, E. coli)
chain: MTQGAVKTTGKRSRAVSAKKKAILSAALDTFSQFGFHGTRLEQIAELAGVSKTNLLYYFPSKEALYIAVLRQILDIWLAPLKAFREDFAPLAAIKEYIRLKLEVSRDYPQASRLFCMEMLAGAPLLMDELTGDLKALIDEKSALIAGWVKSGKLAPIDPQHLIFMIWASTQHYADFAPQVEAVTGATLRDEVFFNQTVENVQRIIIEGIRPR
modifications: acetyl-lysine at 7
notes: RutR of Escherichia coli; rutR gene as in m1 with an amber stop codon at K7 for acetyl-L-lysine; Same rutR construct as m1 apart from the amber codon; constructs are in Supplementary Data 4; source: E. coli BL21 (DE3), genetic code expansion (acetyl-L-lysine at an amber codon), purified
- stoichiometry N [8]: 2

B8: RutR AcK11 (site-specifically K11-acetylated RutR) (natural protein, E. coli)
chain: MTQGAVKTTGKRSRAVSAKKKAILSAALDTFSQFGFHGTRLEQIAELAGVSKTNLLYYFPSKEALYIAVLRQILDIWLAPLKAFREDFAPLAAIKEYIRLKLEVSRDYPQASRLFCMEMLAGAPLLMDELTGDLKALIDEKSALIAGWVKSGKLAPIDPQHLIFMIWASTQHYADFAPQVEAVTGATLRDEVFFNQTVENVQRIIIEGIRPR
modifications: acetyl-lysine at 11
notes: RutR of Escherichia coli; rutR gene as in m1 with an amber stop codon at K11 for acetyl-L-lysine; Same rutR construct as m1 apart from the amber codon; constructs are in Supplementary Data 4; source: E. coli BL21 (DE3), genetic code expansion (acetyl-L-lysine at an amber codon), purified
- stoichiometry N [8]: 2

B9: double-acetylated RutR AcK7/11 (natural protein, E. coli)
chain: MTQGAVKTTGKRSRAVSAKKKAILSAALDTFSQFGFHGTRLEQIAELAGVSKTNLLYYFPSKEALYIAVLRQILDIWLAPLKAFREDFAPLAAIKEYIRLKLEVSRDYPQASRLFCMEMLAGAPLLMDELTGDLKALIDEKSALIAGWVKSGKLAPIDPQHLIFMIWASTQHYADFAPQVEAVTGATLRDEVFFNQTVENVQRIIIEGIRPR
modifications: acetyl-lysine at 7 and at 11
notes: RutR of Escherichia coli; rutR gene as in m1 with amber stop codons at K7 and K11 for acetyl-L-lysine; Same rutR construct as m1 apart from the amber codons; constructs are in Supplementary Data 4; also called K7- and K11-double-acetylated RutR; source: E. coli BL21 (DE3), genetic code expansion with an additional plasmid for the optimized MbtRNAopt, purified
- stoichiometry N [8]: 2
